According to paper PMC4105751 (RNA, 2014):

How the values were obtained:
crystal structure [1] = target: the molecule itself; test: crystal structure
crystal structure [2] = target: the molecule itself; test: crystal structure; remark: listed apart in the source
[3] = target: the molecule itself; test: SAXS with inline size-exclusion chromatography

B1: N-terminal SPOUT domain of TrmJ of Sulfolobus acidocaldarius (SaTrmJ1-157) (domain or fragment, UniProt Q4JB16 1-157, looked up)
chain: MTIRLVIVEPEGAYNLGFIARLVKNFLIDEFYVVNPKADINEAIKFSAKGSEVIEKMMKITNNFDDAIRDVDLKIATSSIADIKGDLLRKSIRPIDLERLIKDKKVAFIFGRESVGLTREEIAKSDFLLFIPANPEYPVLNLSHAVGIVLYELWRNR
Question: How did the “stoichiometry N” value (crystal structure [1]) turn out when B1 was run?
Answer: Its value is 2.

B2: N-terminal SPOUT domain of TrmJ of Escherichia coli (EcTrmJ1-164) (domain or fragment, E. coli, UniProt P0AE01 1-164, looked up)
chain: MLQNIRIVLVETSHTGNMGSVARAMKTMGLTNLWLVNPLVKPDSQAIALAAGASDVIGNAHIVDTLDEALAGCSLVVGTSARSRTLPWPMLDPRECGLKSVAEAANTPVALVFGRERVGLTNEELQKCHYHVAIAANPEYSSLNLAMAVQVIAYEVRMAWLATQ
Question: B2 was tested. Which “stoichiometry N” value (crystal structure [2]) did it give?
Answer: Its value is 2.

B3: C-terminal domain of TrmJ of Escherichia coli (EcTrmJ167-246) (domain or fragment, E. coli, UniProt P0AE01 167-246, looked up)
chain: GEQVEHEETPYPLVDDLERFYGHLEQTLLATGFIRENHPGQVMNKLRRLFTRARPESQELNILRGILASIEQQNKGNKAE
Question: Which “stoichiometry N” value [3] does the source give for B3 here?
Answer: Its value is 2.
